# Reference: the RNAGym collection of RNA variant scans (doi:10.1073/pnas.2313332121)
# This sample holds only a part of the variants without activity.
# B1: TPR 5TU (parent)
# chain: GGAUCUUCUCGAUCUAACAAAAAAGACAAAUCUGCCACAAAGCUUGAGAGCAUCUUCGGAUGCAGAGGCGGCAGCCUUCGGUGGCGCGAUAGCGCCAACGUUCUCAACUAUGACACGCAAAACGCGUGCUCCGUUGAAUGGAGUUUAUCAUG
# Variants of: B1
# Assay: polymerase ribozyme fitness, log enrichment relative to wild type (log ratio); higher = more active; in vitro selection for triplet polymerase activity
# In short: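 Fitness compares each genotype's enrichment to that of the wild type on a logarithmic scale, averaging replicates with inverse-variance weights. The logarithm is base 2. Enrichment came from Illumina sequencing of input and output libraries after one triplicate round of in vitro selection, which included frozen incubation at −7 °C, of PCR-built, transcribed mutant libraries of each subunit of a heterodimeric triplet polymerase ribozyme. Only genotypes with ≥10 input reads and ≥1 read per output were kept.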
row,Variant,polymerase ribozyme fitness (log ratio)
1,GGAUCUUCUCGAUCUAACAAAAAAGAGAAAUCUGCCACAAAGCUUGAGAGCAUCAUCGGAUGCAGAGGCGGCAGCCUUCGGUGGCGCGAUAGCGCCAACGUUCUCAACUAUGACACGCAAAACGCGUGCUCCGUUGAAUGGAGUUUAUCAUG,-3.74
2,GGAUCUUCUCGAUCUAACAAAAAAGAGAAAUCUGCCACAAAGCUUGAGAGCAUCUUCGGAUGCAGAGGCGGCAGCCUUCGGUGGCGCGAUAGUGCCAACGUUCUCAACUAUGACACGCAAAACGCGUGCGCCGUUGAAUGGAGUUUAUCAAG,≤ -4.2
3,GGAUCUUCUCGAUCUAACAAAAAAGAUGAAUCUGCCACAAAGCUUGAGAGCAGCUUCGGAUGCAGAGGCGGCGGCCUUCGGUGGUCCGAUAGCGCCAACGUUCUCAACUAUGACACGCAUAACGCGUGCUCUGUUGAAUGGAGUUUAUCAUG,≤ -4.2
4,GGAUCUUCUCGAUCUAACAAAAAAGAGAAAUCCGCCACAAAGCUUGAGAGCAUCUUCGGAUGCAGAGUCGGCAGCCUUCGGUGGCGCGAUAGCGCCAACGUUCUCAACUAUGACACGCAAAACGCGUGCUCCGUUGAAUGGAGUUUAUCAUG,≤ -4.2
5,GGAUCUUCUCGAUCUAACAAAAAAGAGAAAUCUGCCACAAAGCUUGAGAGCAUCUUCGGAUGCAGACGCGGCAGCCUUCGGUGGCGCGAUAGCGCCAACGUUCUCAACUAUGACACGCAAAACGCGUGCUCCGUUGAAUGAAGUUUUUCAUA,≤ -4.2
6,GGAUCUUCUCGAUCUAACAAAAAAGAGAAAUCUGCCACAAAGCUUGACAGCAUCUUCGGAUGCAGAGGCGGCAGCCUUCAAUGGCGCGAUAGCGCCAACGUUCUCAACUAUGGCACGAAAAACGCGUGCUCUGUUCAAUGGAGUUUAUCGUG,≤ -4.2
7,GGAUCUUCUCGAUCUAACAAAAAAGAUGAAUCUGCCACAAAGCUUGAGAGCAUCUUCGGGUGCAGAGGCGGCAGCCUUCGGUGGCGCGAUAGCGCCAUCAUUCUCAACUAUGACACGCAAAACGCGUGCUCCGUGGAAUGGAGUUUAUCAUG,≤ -4.2
8,GGAUCUUCUCGAUCUAACAAAAAAGAGAAAUCUGCCACAAAGCUUGAGAGCAACUUCGGAUGCAGAGGCGGCAGCCUUCGGUGGCGCGAUAGCGCCAACGUACUCAACUAUGACACGCAAAACGCGUGCUCCGUUGAAUGGAGUUUAUCAUG,≤ -4.2
9,GGAUCUUCUCGAUCUAACAAAAAAGAGAAAUCUGCCACAAAGCUUGAGAGCAUCUUCGGAUGCAGAGGCGGCAGCCUUCAGUGGCGCGAUAGCGCCAACGUUCUCAACUAUGAAAUGCAAAACGCGUGCUCCGUUGAAUGGCGUUUAUCAUG,≤ -4.2
10,GGAUCUUCUCGAUCUAACAAAAAAGAUACAUCUGCCACAAAGCUUGAGAGCAUCUUCCGAUGCAGAGGCGGCAGCCUUCGGUGGAGCGAUAGCGCCAACGUUCUCAACUAUGACACGCAAAACGCGUGCUCCGUUGAAUGGAGUAUAUCAUG,≤ -4.2
11,GGAUCUUCUCGAUCUAACAAAAAAGAGAAAUCUGCCACAAAGCUUGAGAGCAUCUUCGGAUGCAGAGGCGGCAGCCUUCGGUGGCGCGAUAGCGCUAACGUUCUCGACUAUGACACGCAAAACGCGUGCUCCGUUGAAUGGAGUUUAUCAUG,-4
12,GGAUCUUCUCGAUCUAACAAAAAAGAGAAAUCUGCCACAAAGCUUGAGAGCAUCUUCGGAUGCAGAGGCGACAGCCUUCGGUGGCGCGAUAGCGCCAACGUUCUCAACUAUGACACGCAAAACGCGUGCUCCGUUGACUGGCGUUUAUCAUG,≤ -4.2
13,GGAUCUUCUCGAUCUAACAAAAAAGAGAAAUCUGCCACAAAGCUAGAUAGCAUCUUCGGAUGCAGAGGCGGCAGCCUUCGGUGGCGCGAUCGCGCCAACGUUCUCAACUAUGACACGCAAAACGCGUGCUCCGUUGAAUGGAGUUUAUCAUG,≤ -4.2
14,GGAUCUUCUCGAUCUAACAAAAAAGAGAAAUCUGCCACAAAGCUUGAGAGCAUCUACGGAUGCAGAGGCGGCAGCCUUCGGUGGCGCGAUAGCGCCAACGUUCUCAACUAUGACACGCAAAACGCGUGCUCCGUUGAAUGGAGUUUAUCAUG,-3.69
15,GGAUCUUCUCGAUCUAACAAAAAAGAUAAAUCUGCCCCAAAGCUUGAGAGCAUCUUCGUAAGUCGAGGCGGCAGCCUUCGGUGGCGCGAUAUCGCCAACGUUCUCAACUAUGACACGCAAAACGCGUGCUCCGUUGAAUGGAGUUUAUCAUG,≤ -4.2
16,GGAUCUUCUCGAUCUAACAAAAAAGAUAAAUCUGCCUCAAAGCUUGAGAGCAUCUUCGGAUGCAGAGGCGGCAGCCUUCGGUGGCGCGAUAGCGCCAAGGUUCUCAACUAUGACACGCAAAACGCGUGCUCCGUUGAAUGGAGUUUAUCAUG,-3.64
17,GGAUCUUCUCGAUCUAACAAAAAAGAUCAAUCUGCCACAAAGCGUGAGAGCCUCUUCGGAUGCAGAGGCGGCAGCCUUCGGUGGCGCGAUAGAGCCAACGUUCUCAACUAUGACACGCAAAACGCGUGCUCCGUUGAAUGGAGUUUAUCAUG,-4.1
18,GGAUCUUCUCGAUCUAACAAAAAAGAUAAAUCUGCCACACAGCUUGAGAGCAUCUUCGCAUGCAGAGGCGGCAGCCUUCGGUGGCGCGAUACCGCCAGCGUUCUCAAUUAUGACACGCAAAACGCGUGCUCAGUUGAAUGGAGUUUAUCAGG,≤ -4.2
19,GGAUCUUCUCGAUCUAACAAAAAAGAUAAAUCUGCCACCAAGCUUGAGAGCAUCUUCGGAUGCAGAGGCGGCAGCCUUCGGUAGCGCGAUAGCGCCAACGUUCUCAACUAUGACACGCAAAACGCGUGCUCCGUUGAAUGGAGUUUAUCAUG,≤ -4.2

row,Variant,polymerase ribozyme fitness (log ratio)
1,GGAUCUUCUCGAUCUAACAAAAAAGAUAAAUCUGCCACAAAGCUUGAGAGCAUCUUCGGAUGCAGAGGCGGCAGCCUUCGGUGGCGCGAUAGCGCCAACGUUCUCAACUAUGACACGCAAAACGCGUGCUCCGUUGAAUGGAGUUUAUCAUG,-1.13
2,GGAUCUUCUCGAUCUAACAAAAAAGAGAAAUCUGCCACAAAGCUUGAGAGCAUCUUCGGAUGCAGAGGCGGCAGCCUUCGGUGGCGCGAUAGCCCCAACGUUCUCAACUAUGACACGCAAAACGCGUGCUCCGUUUAAUGGAGUUUAUCAUG,≤ -4.2
3,GGAUCUUCUCGAUCUAACAAAAAAGAGAAAUCUGCCACAAAGCUUGAGAACAUCUUCGGAUGCAGAGGCGGCAGCCUUCGGUGGCGCGAUAGCGCCAACGUUCUCAACUAUGACACGCAAAACGCGUGCUCCGUUGAAUGGAGUUUAUCAUG,-3.72
4,GGAUCUUCUCGAUCUAACAAAAAAGAUAAAUCUGCCACCAAGCUUGAGAUCAUCUUCGGAUGCAGAGGCGGCAGCCUUCGGUGGCGCGAUAGCGCCAACGUUCUCAACUAUGACACGCAAAAAGCGUGCUCCGUUGAAUGGAGUUUAUCAUG,≤ -4.2
5,GGAUCUUCUCGAUCUAACAAAAAAGAGAAAUCUGCCACAAAGCUUGAGAGCAUCUUCGGAUGCAGAGGCGGCAGCCUUCGGUGGCGGGAUAGCGCCAACGUUCUCAACUAUGACACGCAAAACGCGUGCUCCCUUGAAUGGAGUUUAUCAUG,≤ -4.2
6,GGAUCUUCUCGAUCUAACAAAAAAGAGAAAUCUGCCACAAAGCUUGAGAGCAUCUUCAGAUGCAGAGGCGGCAGCCUUCGGUGGCGCGAUAGAGGCAACGUUCUCAACUAUGACACGCAAAACGCGUGCUCCGUUGAAUGGAGUUUAUCAUG,≤ -4.2
7,GGAUCUUCUCGAUCUAACAAAAAAGAGAAAUCUGCCACAAAGCUUGAGAGCAUCUUCGGAUGCAGAGGCGGCAGCCUUCGGUGGCGCGAUAGCGCCAACGUUCUCAACUAUGACACGCAAAACGAGUGCUCCGUUGAAUGGAGUUUAUCAUG,-3.93
8,GGAUCUUCUCGAUCUAACAAAAAAGAGAAAUCUGCCACAAAGCUUGAGAGCAUCUUCGGAUGCAGAGGCGGCAGCCUUCGGUGGCGUGAUAGCGCCAACGUUCUCAACUAUGACACGCAAAACGCGUGCUCCGUUGAAUGGAGUUUAUCAUG,-3.97
9,GGAUCUUCUCGAUCUAACAAAAAAGAGAAAUCUGCCACAAAGCUUGAGAGCAUCUUCGGAUGCAGAGGCGGCAGCCUUCGGUGGCGAGAUAGCGCCAACGUUCUCAACUAUGACACGCAAAACGCGUGCUCCGUUGAAUGGAGUUUAUCAUG,≤ -4.2
10,GGAUCUUCUCGAUCUAACAAAAAAGAGAAAUCUGCCACAAAGCUUGAGAGCAUCUUCGGAUGCAGAGGCGGCAGCCUUCGGUGGCGCGAUAGUGCCAACGUUCUCAACUAUGACACGCAAAACGCGUGCUCCGUUGAAUGCAGUUUAUCAUG,-3.68
11,GGAUCUUCUCGAUCUAACAAAAAAGAGAAAUCUGCCACAAAGCGUGAGAGCAUCUUCGGAUGCAGAGGCGGCAGCCGUCGGUCGCGCGUUAGCGCCAACGUUCUCAACUAUGACACGCAAAACGCGUGCUCCGUUGAAUGGAGUUUAUCAUG,≤ -4.2
12,GGAUCUUCUCGAUCUAACAAAAAAGAUAAAUCUGCCCCAAAGCUUGAGAGUAUCUUUGGAUGCAGAGGCGGCAGCCUUCGGUGGCGCGAUAGCGUCAACGUUCUCAACUAUGACACGCAAAACGAGUGCUCCGUUGAAUGGAGUUUAUCAUG,-4.06
13,GGAUCUUCUCGAUCUAACAAAAAAGAGAAAUCUGCCACAAAGCUUGAGAGCAUCUUCGGAUGCAGAGGCGGCAGCCUUCGGUGGCGCGAUAGCGACAACGUUCUCAACUAUGACACGCAAAACGCGUGCUCCGUUGAAUGCAGUUUAUCAUG,-3.77
14,GGAUCUUCUCGAUCUAACAAAAAAGAUAUAUCUGCCACAAAGCUUGAGAGCAUCUUCGGAUGCAGAGGCGGCAGCCUUCGGUGGCGCGAUAGCGCCAACGUUCUCAACUAUGACACGCAAAACGCGUGCUCCGUUGAAUGGAGCUUAUCAUG,≤ -4.2
15,GGAUCUUCUCGAUCUAACAAAAAAGAGAAAUCUGCCACAAAGCUUGAGAGCAUCUUCGGAUGCAGAGGCGGCAGCCUUCGGUGGCGCGAUACCGCCAACGUUCUCAACUAUGACACGCAAAACGCGUGCUCCGUUGAAUGGUGUUUAUCAUG,≤ -4.2
16,GGAUCUUCUCGAUCUAACAAAAAAGAGAAAUCUGCCACAAAGCUUGAGAGCAUCUUCGGAUGCAAAGGCGGCAGCCUUCGGUGGCGCGAUAGCGCCAACGUUCUCAACUAUGACACGCAAAACGCGUGCUCCGUUGAAUGGAGUUUAUCAUG,≤ -4.2
17,GGAUCUUCUCGAUCUAACAAAAAAGAUAAAUCUGCCACGCAGCUUGAGAGCAUCUUCGGAUGCAGAGGAGGCAGCCCUCGGUGGCGCGAUAGCUACAACGUUCUCAACUAUGACAUGCAAAACGCGUGCUCCGUUGAAUUGAGUUUAUCAUG,≤ -4.2
18,GGAUCUUCUCGAUCUAACAAAAAAGAUAAAUCUGCCCCAAAGCUUGAGAGCCUCUUCGGAUGCAGAGGCGGCAGCCUUCGGUGGCGUCAUAGCGCCAACGUUCUCAACUAUGACACGCAAAACGCGUGCUCCGUUGAAUGGAGUUUAUCAUG,≤ -4.2
19,GGAUCUUCUCGAUCUAACAAAAAAGAGAAAUCUGCCACAAAGCUUGAGAGCAUCUUCGGAUGCAGAGGCGGCAGCCUUCGGUAGCGCGCUAGCGCCAACGUUCUCAACUAUGACACGCAAAACGCGUGCUCCGUUGAAUGGAGUUUAUCAUG,-3.98
